One block for each binder: values may come before it.
Columns and labels:
recombinant human TNFα [1] = target: T1, recombinant human TNFα (human, UniProt P01375 77-233, 125I label in the receptor binding assay); experiment: cell-based or functional assay
recombinant human TNFα [2] = target: T1, recombinant human TNFα; experiment: inhibition of 125I-TNFα (5 ng/ml) binding to plate-coated p55-sf2; hybridoma supernatant preincubated with 125I-TNFα, cpm bound counted
Procedure: Varying amounts of hybridoma cell supernatants containing known amounts of TNV mAb were preincubated with a fixed concentration (5 ng/ml) of ¹²⁵I-labeled TNFα. […] The amount of TNFα that bound to the p55 receptor in the presence of the mAbs was determined after washing away the unbound material and counting using a gamma counter. Although eight TNV mAb samples were tested in these experiments, for simplicity three of the mAbs that were shown by DNA sequence analyses to be identical to one of the other TNV mAbs (see Section 5.2.2) are not shown here. Each sample was tested in duplicate. The results shown are representative of two independent experiments.
(§1) 50:1 of p55-sf2 at 0.5:g/ml in PBS was added to Optiplates to coat the wells during a one-hour incubation at 37° C. Serial dilutions of the eight TNV cell supernatants were prepared in 96-well round-bottom plates using PBS/0.1% BSA as diluent. […] The mixture was preincubated for one hour at RT. The coated Optiplates were washed to remove unbound p55-sf2 and 50:1 of the ¹²⁵I-TNFα/cell supernatant mixture was transferred to the Optiplates. After 2 hrs at RT, Optiplates were washed three times with PBS-Tween. […] of Microscint-20 was added and the cpm bound determined using the TopCount gamma counter.

recombinant human TNFα [3] = target: T1, recombinant human TNFα; experiment: inhibition of 125I-TNFα binding to plate-coated p55-sf2, hybridoma supernatants
Procedure: as §1
A simple binding assay was done to determine whether the eight TNV mAbs contained in hybridoma cell supernatant were capable of blocking TNFα binding to receptor. The concentrations of the TNV mAbs in their respective cell supernatants were first determined by standard ELISA analysis for human IgG.

T1 sequence (P01375 77-233 limits assumed): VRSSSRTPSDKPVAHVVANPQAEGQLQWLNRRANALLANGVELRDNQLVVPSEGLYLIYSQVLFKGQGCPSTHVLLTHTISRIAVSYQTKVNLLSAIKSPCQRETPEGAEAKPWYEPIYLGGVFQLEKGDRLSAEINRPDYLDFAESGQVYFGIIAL

neutralizing TNFα bioactivity (in vitro) (recombinant human TNFα [1]): 4 fold (against TNV14) | IC50 (read off the curve) (recombinant human TNFα [2]): ~4 ng/mL | fold better at blocking TNF binding to p55-sf2, against TNV118 and TNV14 (recombinant human TNFα [3]): ~4 fold
B1: TNV148 (GenTNV148.26.12) (antibody, human IgG1, kappa, V domains shown)
VH: QVQLVESGGGVVQPGRSLRLSCAASGFIFSSYAMHWVRQAPGNGLEWVAFMSYDGSNKKYADSVKGRFTISRDNPKNTLYLQMNSLRAEDTAVYYCARDRGIAAGGNYYYYGMDVWGQGTTVTVSS
VL: EIVLTQSPATLSLSPGERATLSCRASQSVYSYLAWYQQKPGQAPRLLIYDASNRATGIPARFSGSGSGTDFTLTISSLEPEDFAVYYCQQRSNWPPFTFGPGTKVDIKR
notes: Hybridoma-derived fully human IgG1 kappa mAb (G1m(z)); also called C420A

fold better at blocking TNF binding to p55-sf2, against TNV118 and TNV14 (recombinant human TNFα [3]): ~4 fold
B2: TNV86 (GenTNV86.14.34) (antibody, human IgG1, kappa, V domains shown)
VH: B1 VH
VL: B1 VL
notes: Hybridoma-derived fully human IgG1 kappa mAb; also called C417A

Reference: patent US20230040065A1 (Janssen / Centocor, published 2023)
